Reference: US20090117593A1, “T. Cruzi-derived neurotrophic agents and methods of use therefor” (Tufts University, priority 2006, published 2009)
“Also recorded” adds a separate entry of the source.

B1: TS-154: recombinant catalytically active trans-sialidase construct with 5 tandem repeat units (protein, listed as Trypanosoma cruzi)
chain: KKKQVFSKIFYSEDEGKTWKFGEGRSDFGCSEPVALEWEGKLIINTRVDYRRRLVYESSDMGNSWVEAVGTLSRVWGPSPKSNQPGSQSSFTAVTIEGMRVMLFTHPLNFKGRWLRDRLNLWLTDNQRIYNVGQVSIGDENSAYSSVLYKDDKLYCLHEINSNEVYSLVFARLVGELRIIKSVLQSWKNWDSHLSSICTP
B2: TS-F: recombinant full catalytic domain of TS, amino acid residues 33-666 (protein, listed as Trypanosoma cruzi)
chain: ETQIAIKNSRVSSVSRVVDPTVIVKGNKLYVLVGSYYSSRSYWSSHGDARDWDILLAVGEVTKSTAGGKITASIKWGSPVSLKKFFPAEMEGMHTNQFLGGAGVAIVASNGNLVYPVQVTNKRKQVFSKIFYSEDDGKTWKFGKGRSDFGCSEPVALEWEGKLIINTRVDWKRRLVYESSDMEKPWVEAVGTVSRVWGPSPKSNQPGSQTSFTAVTIEGMRVMLFTHPLNFKGRCVRDRLNLWLTDNQRIYNVGQVSIGDENSAYSSVLYKDDKLYCLHEINTDEVYSLVFARLVGELRIIKSVLRSWKNWTATCPAFAPLLIQPLRRQRVVVVPLSPRLVLLAFCRQRLPKRMGGSYRCVNASTANAERVRNGLKFAGVGGGALWPVSQQGQNQRYRFANHAFTLVASVTIHEAPRAASPLLGASLDSSGGKKLLGLSYDEKHQWQPIYGSTPVTPTGSWETGKRYHLVLTMANKIGSVYIDGELLEGSGQTVVPDGRTPDISHFYVGGYKRSDMPTISHVTVNNVLLYNRRQLNTEEIRTLFLSQDLIGTEAHMDSSSDSSAHSTPSTPADSSAHSTPSTPVDSSAHSTPSTPADSSAHGTPSTPVDSSAHGTPSTPADSSAHGTPSTPVDS

Assays:
IL-6 [1] = assay: IL-6 secretion by PBMC (ELISA); assay type: cell-based, human; details: 24 hours
Procedure: (§1) Primary cultures of human intestinal microvascular endothelial cells (HIMEC) isolated from normal jejunal mucosa/submucosal tissue were prepared as described (Strong et al., Gastroenterology 114:1244-1256 (1998)). The HIMEC were cultured in fibronectin-coated plasticware in MCDB medium (Sigma) supplemented with 20% FBS, 90 μg/ml heparin and 50 μg/ml endothelial cell growth factor (Sigma). T-24 cells (ATCC Accession No. HTB-4) were cultured in M199 medium supplemented with 10% FBS. PBMC were purified by Ficoll-Paque gradient as described (Current Protocols in Immunology, pp 7.1.1-7.1.2). Vero cells (ATCC Accession No. CCL-81) were grown in RPMI medium with 5% Nu serum and infected with the Silvio X-10/4 of T. cruzi as described previously (Chuenkova et al., J. Exp. Med. 181:1693-1703 (1995)).
(§2) Endothelial cells and T-24 cells were plated on 24-well plates at a density of 1×10^3 cells/well, while peripheral blood mononuclear cells (PBMC) were plated in the similar wells at 1×10^6/well. Triplicat cultures of cells were incubated test agents for a predetermined amount of time. […] Cytokines and chemokines released in the culture supernatants were measured by ELISA assay following the instructions of the manufacturer (Endogen). The cytokines tested were IL-1β, IL-4, IL-8, […], IL-12, IFN-γ, TNF-α, and the chemokines RANTES and MCP-1. Negative controls were cells incubated in medium containing polymixin B at 10 μg/ml, and positive controls were cells incubated with bacterial LPS at the low ng/ml range (for PBMC or HIMEC) or in the μg/ml range for carcinoma T-24 cells. In some experiments, IL-1β or TNFα were used as positive control for cytokine release.
TR peptides (Table 2) were synthesized at the Tufts Synthesis Facility (Boston, Mass.). Each peptide was purified by HPLC, and the number of amino acids and molecular weight of each peptide verified by mass spectrometry. Peptides were dissolved in growth medium (10% FCS in RPMI) and added at various concentrations to 1×10^6 PBMC/well in 24-well plates. After 24 hours, IL-6 was assayed by ELISA in the conditioned supernatants.

Trans-sialidase assay = assay type: biochemical
Procedure: The trans-sialidase assay was performed as described (Scudder, P. et al., J. Biol. Chem., 268:9886-9891 (1993)) with slight modifications. Various amounts of intact enzyme or enzyme fragments were added to 50 mM PBS, Ph 7.2, containing 15% fetal calf serum and […] of [^14C]N-acetyllactosamine (4×10^5 dpm), 50 μg BSA and 0.02% NaN3 in a volume of 60 μl. After incubation for a predetermined amount of time at room temperature, the reaction mixture was diluted to 1.0 ml with distilled water and applied to a column containing 1.0 ml Q-Sepharose equilibrated with water. Sialylated product was eluted with 1 M NaCl and quantified by scintillation counting.
TS enzymatic activity was measured by the sialylation of the acceptor ^14C-labeled N-acetyllactosamine on anion exchange resins (Scudder, P. et al., J. Biol. Chem. 268:9886-9891 (1993)). Recombinant TSA-1, was expressed on insect sf9 cells and purified from serum-free medium by ion exchange chromatography (monoQ) and preparative SDS-PAGE (Wrightsman, R. A. et al., J. Immunol., 153:3148-3154 (1994).

IL-6 [2] = assay: IL-6 secretion by T-24 carcinoma cells (ELISA); assay type: cell-based, human; details: 24 hours
Procedure: as §1, §2

neuroblastoma N18 cells = assay: Neurite outgrowth assay in N18 cells; assay type: cell-based; details: soluble or immobilized on plastic (500 μg/ml coating), 17 hours
Procedure: 96-well microtiter plates were coated overnight at 4° C. with the TS or peptides or fragments thereof, or with control proteins laminin (Ln) or bovine serum albumin (BSA) at 500 μg/ml. After removing the compounds, the plates were further incubated with 1% BSA for 1 hour at room temperature and immediately used as substratum for PC12 or N18 (Prasad, K., Biol. Rev. Camb. Philos. Soc., 66:431-451 (1991)) cells in serum-free RPMI/0.2% BSA. Neurite outgrowth was measured using a phase-contrast microscope 17 hours later.

Akt kinase [3] = assay: Immunodetection of activated Akt in PC12 cells; assay type: cell-based; details: Western blot, phospho-Akt (Ser 473) antibody; 100 ng/ml
Procedure: PC12 cells were deprived of serum for 24-48 hours, stimulated with TS, TS-F or LTR for 2, 5 or 10 minutes and immediately lysed with 2% SDS. In studies using the PI-3 kinase inhibitor, LY294002 (LY), cells were pre-treated with the inhibitor (1 μM) for 30 min prior to the addition of TS-F or TS. The proteins in the cell lysate were separated in SDS-10% polyacrylamide gels, transferred to nitrocellulose membrane (Bio-Rad) and the phosphorylated form of protein kinase Akt was detected with phospho-Akt (Ser 473) antibody (New England BioLabs, Beverly, Mass.), followed by alkaline phosphatase-conjugated secondary antibody (Promega, Madison, Wis.). Bands corresponding to phospho-Akt (60 kDa) were quantified using a scanning densitometer (Bio-Rad).

Akt kinase [4] = assay: Immunodetection and kinase assay of activated Akt in Schwann cells
Procedure: Schwann cells, grown in 10% FCS to 70% confluency in 6-well plates, were switched to DMEM containing 0.1% FCS for 48 hours to reduce basal Akt phosphorylation. Then the cells were placed in serum-free DMEM medium for 2 hours and challenged with TS, CD or other test factors for predetermined periods of time. When the PI-3 kinase inhibitor LY294002 (Sigma) was used, the inhibitor was added to the serum-starved cells 30 minutes before challenge with TS or CD. Cell samples were lysed with lysis buffer (20 mM Tris, pH 7.5, 150 mM NaCl, 1 mM EDTA, 1% Triton X-100 (t-Octylphenoxypolyethoxyethanol), 2.5 mM sodium pyrophosphate, 1 mM glycerophosphate, 1 mM Na3VO4, 1 μg/ml leupeptin and 1 mM Phenymethylsulfonyl fluoride (PMSF)). Samples (40 μg) were run on 10% SDS-Page, blotted to nitrocellulose paper and analyzed by Western (immuno) blot with monoclonal antibody specific for P-Ser473 of Akt (New England Biolabs). Reaction was visualized by chemiluminescence using the ECL kit (New England Nuclear).
Enzymatic activity of Akt kinase was assessed using the synthetic substrate GSK-3α-fusion protein (Cell Signaling Technology, Beverly, Mass.), according to the protocol provided by Cell Signaling Technology. In short, lysates of Schwann cells subjected to various treatments were immunoprecipitated with Akt antibody coupled to agarose beads, and the immunoprecipitates incubated with GSK-3α-fusion protein as the substrate for Akt phosphorylation, in the presence of 200 μM ATP. Phosphorylation of GSK-3 fusion protein was detected by Western blot using phospho-GSK-3αβ (Ser21/9)-specific antibody (Cell Signaling Technology). The reaction product was identified by chemiluminescence using the ECL kit (New England Nuclear).

human Schwann cells = assay: Serum withdrawal-induced apoptosis of Schwann cells (DAPI); assay type: cell-based
PC12 cells = assay: Protection of PC12 cells from apoptosis induced by trophic factor withdrawal (DAPI, TUNEL); assay type: cell-based; details: serum-free RPMI-1640/0.2% BSA, 17 hours, DAPI or TUNEL
Description: PC12 cells were obtained from ATCC (Manassas, Va. (Accession No. CRL-1721)) and cultured on collagen-coated dishes in RPMI 1640 supplemented with 10% horse serum and 5% fetal bovine serum (Greene, L., and Tishler, A., Proc. Natl. Acad. Sci. USA, 73:2424-2428 (1976)). For differentiation and survival experiments, cells were washed three times in serum-free RPMI/0.2% BSA, plated in the same medium in collagen-coated plastic dishes at 2×10^5/ml, without and with growth factors, TS, recombinant proteins, synthetic peptides, for the time and concentrations indicated in the Figures.
Cell staining with 4,6-diamino-2-phenylindole (DAPI). Cells were fixed with 4% formaldehyde in PBS for 5 minutes, washed with PBS, stained with 10 μg/ml DAPI (Sigma) for 2 minutes, washed with PBS, and visualized under UV light using a fluorescent microscope. About 300-400 cells were examined under the microscope to determine the percentage of apoptotic cells.
Cell DNA nick end labeling (TUNEL) (Gavrieli, Y. et al., J. Cell. Biol., 119:493-501 (1992)) assay was performed using a kit purchased from Boehringer Mannheim as described by the manufacturer.
Protection against apoptosis of PC12 cells in serum-free medium containing a test agent (agent N) (e.g., protection induced by TS, TS fragments, NGF or other growth factors), was calculated by the formula: 100%−[(apoptosis(%) of cells kept in RPMI containing test agent N÷apoptosis (%) of cells kept in RPMI)×100%]. Testing the effect of Wortmannin (Sigma) and LY294002 (Sigma) in inhibiting the neuroprotection of TS was performed following the protocol described by others (Yao, R., and Cooper, G., Science, 267:2003-2006 (1995); D'Mello, et al., J. Neurosci., 17:1548-1560 (1997)). In brief, PC12 cells were switched from growth medium to RPMI without and with TS or various other growth factors. After 24 hours, Wortmannin and LY294002 were added to the cultures. After another 24 hours, cells were examined for apoptosis by the DAPI assay, as above.

Molecule | IL-6 secretion by PBMC (IL-6 [1]) | trans-sialidase (enzymatic) activity (Trans-sialidase assay) | IL-6 secretion by T-24 cells (IL-6 [2]) | neurite outgrowth in N18 cells (neuroblastoma N18 cells) | phosphorylation (activation) of Akt kinase in PC12 cells (Akt kinase [3]) | Akt phosphorylation in Schwann cells transfected with dominant negative PTEN mutant (Akt kinase [4]; CD 500 ng/ml) | Akt phosphorylation in Schwann cells transfected with empty vector (neo) (Akt kinase [4]; CD 500 ng/ml) | time within which CD activated Schwann cell Akt kinase (Akt kinase [4]; CD 500 ng/ml) [min] | transience of Akt activation in Schwann cells (Akt kinase [4]; CD 500 ng/ml) | Akt kinase activity in control GFP-transfected Schwann cells (Akt kinase [4]; CD 500 ng/ml, 2 minutes, GSK-3α substrate) | Akt kinase activity in Schwann cells over expressing AktKI (Akt kinase [4]; CD 500 ng/ml, 2 minutes, GSK-3α substrate, listed as CD) | Akt phosphorylation in Schwann cells over expressing PTEN (Akt kinase [4]; CD 500 ng/ml, listed as CD) | phosphorylation (activation) of Akt kinase in Schwann cells (Akt kinase [4]; Western blot P-Akt (Ser473), listed as CD) | survival of Schwann cells transfected with dominant negative PTEN mutant (pG129R) (human Schwann cells; CD 500 ng/ml) | survival of control Schwann cells transfected with GFP vector (human Schwann cells; CD 500 ng/ml, serum-free, 48 hours) | survival of Schwann cells over expressing kinase-inactive Akt (AktKI) (human Schwann cells; CD 500 ng/ml, serum-free, 48 hours, listed as CD) | fragmented nuclei in Schwann cells transfected with empty vector (neo) (human Schwann cells; CD 500 ng/ml, serum-starved) | rescue from apoptosis of Schwann cells over expressing PTEN (human Schwann cells; CD 500 ng/ml, listed as CD) | inhibition of serum withdrawal-induced apoptosis of Schwann cells (human Schwann cells; serum-free DMEM, 24-72 hours, listed as CD) | protection of PC12 cells from apoptosis induced by trophic factor withdrawal (PC12 cells)
B1 | as powerful as enzymatically-inactive TS-H32 in stimulating IL-6 secretion | enzymatically-active | as powerful as enzymatically-inactive TS-H32 in stimulating IL-6 secretion |  |  |  |  |  |  |  |  |  |  |  |  |  |  |  |  | 
B2 |  | enzymatically active | did not promote IL-6 release from T-24 cells | induced neurite outgrowth to about the same extent as the intact enzyme | effective in activating Akt | did not detectably enhance Akt phosphorylation | boosted levels of phospho-Akt | 1 to 5 | phospho-Akt not detected after 15 min | stimulation of Akt activity | inability of CD to enhance endogenous Akt enzymatic activity; also recorded: did not activate Akt kinase | did not result in the generation of phospho-Akt; also recorded: did not induce phosphorylation of Akt kinase | induced transient phosphorylation of Akt kinase | did not detectably enhance Akt phosphorylation and survival | did increase survival of the cells | did not increase survival of the cells; also recorded: did not promote survival | decreased the number of fragmented nuclei by about ten-fold | did not rescue cells from apoptotic death; also recorded: did not rescue Schwann cells that over expressed PTEN from apoptosis | protected Schwann cells against apoptosis; also recorded: nearly as effective in protecting Schwann cells from apoptosis as 2% serum; also recorded: protected human Schwann cells from apoptosis; also recorded: nearly as effective as 2% serum at inhibiting apoptosis; also recorded: dose-dependent inhibition of serum withdrawal-induced apoptosis | PC12 cell survival being induced by TS-F
